Blank lines part the entries; values can stand above or below the molecule they belong to.
Columns and labels:
[1] = target: Wild-type mouse LAG-3 domains 1 and 2 (D1D2) displayed on yeast as N-terminal fusion to Aga2 (mouse; Saccharomyces cerevisiae) (UniProt Q61790); test: yeast surface display titration, flow cytometry; monomeric D1D2 on yeast
[2] = target: the molecule itself; test: flow-FRET in Expi293 cells; self-association
Procedure: Flow cytometry-based Förster resonance energy transfer (flow-FRET) assays have been utilized for live cell detection of proximal protein associations at distances <100 Å and was thus used to assess LAG-3 dimerization.
Expi293F cells (ThermoFisher Scientific) were transfected with a CFP:YFP:PEI ratio of 0.5:0.5:3 in a 24-well plate at 37° C. in 8% CO₂. Cells were analyzed after 36 hours using a BD LSRII flow cytometer. The 407 nm violet laser was used to excite CFP and the 488 nm blue laser was used to excite YFP. CFP was detected using a 450/50 bandpass filter after excitation with the violet laser and YFP was detected using a 530/30 bandpass filter after excitation with the blue laser.

- Kd [1]: 0.136 nM
Molecule: C9B7W anti-mouse LAG-3 antibody

B1: Full-length mouse LAG-3 fused to CFP or YFP, on Expi293F cells (receptor, UniProt Q61790 24-521, looked up)
chain: GPGKELPVVWAQEGAPVHLPCSLKSPNLDPNFLRRGGVIWQHQPDSGQPTPIPALDLHQGMPSPRQPAPGRYTVLSVAPGGLRSGRQPLHPHVQLEERGLQRGDFSLWLRPALRTDAGEYHATVRLPNRALSCSLRLRVGQASMIASPSGVLKLSDWVLLNCSFSRPDRPVSVHWFQGQNRVPVYNSPRHFLAETFLLLPQVSPLDSGTWGCVLTYRDGFNVSITYNLKVLGLEPVAPLTVYAAEGSRVELPCHLPPGVGTPSLLIAKWTPPGGGPELPVAGKSGNFTLHLEAVGLAQAGTYTCSIHLQGQQLNATVTLAVITVTPKSFGLPGSRGKLLCEVTPASGKERFVWRPLNNLSRSCPGPVLEIQEARLLAERWQCQLYEGQRLLGATVYAAESSSGAHSARRISGDLKGGHLVLVLILGALSLFLLVAGAFGFHWWRKQLLLRRFSALEHGIQPFPAQRKIEELERELETEMGQEPEPEPEPQLEPEPRQL
notes: whole, on cells; Two plasmids, one CFP and one YFP fusion, co-transfected for flow-FRET; also called mLAG-3^CFP; mLAG-3^YFP; not shown: CFP or YFP from pECFP / pEYFP plasmids
- binding result [2]: binds
